Here are results for 1 protein from article PMC11875312, “Hidden Structural States of Proteins Revealed by Conformer Selection with AlphaFold-NMR” (Research Square, 2025).

This data set deals with the molecule itself. Nature of the data set: solution NMR structure (AlphaFold-NMR: AFsample models selected against NOESY and chemical shift data); homodimer models of CDK2AP1(61-115) scored against NOESY peak lists (including 3D X-filtered NOESY on a mixed sample of 50% [15N,13C]-labeled and 50% unlabeled CDK2AP1, recorded earlier, ref. 47; 124 further peaks picked here) and chemical shifts (BMRB 16808); validated by NOESY Double Recall.

B1: Cyclin-Dependent Kinase 2-Associated Protein 1 (residues 61-115) (domain or fragment, human, UniProt O14519 61-115, looked up)
chain: SKYAELLAIIEELGKEIRPTYAGSKSAMERLKRGIIHARGLVRECLAETERNARS
notes: Cyclin-Dependent Kinase 2-Associated Protein 1 (CDK2AP1), human, residues 61-115, the homodimeric four-helix bundle; The methods mention newly assigned H58 - K62 resonances, so the sample may carry residues (perhaps of a tag) before residue 61; also called CDK2AP1; CDK2AP1_(61–115)
With B1, the binding result is recorded as “binds”.
